The test relates to occluded carotid artery. The test is described as follows: Experimental thrombosis and thrombolysis of the carotid artery (electrolytic injury, rtPA/anticoagulant combination, vessel recanalization). Format: in vivo, mice. Conditions: rtPA therapy alone, 10 mg/kg bolus/infusion, blood flow assessed for 60 minutes. As for the experimental part:
Thrombosis: Electrolytic injury was used to generate in situ thrombotic occlusion of the carotid artery in anaesthetised mice, as described (Jackson et al, Nature Medicine 2005; Schoenwaelder et al, J Biol Chem, 2007). Baseline blood flow through the carotid artery was measured using an ultrasound Doppler flow probe. The flow probe was removed, and vessel injury was delivered in the presence of stasis, through placement of a distal haemostatic clamp (Micro Serrefine Clamp, 18055-05, Fine Science Tools, Canada). Delivery of an electrical current (8 mA or 28 mA for 3 minutes) was achieved using a lesion making device (Model 53500, Ugo Basile, Comerio, VA, Italy), with the injury site flushed constantly with saline to prevent tissue dehydration. […]
Thrombolysis: Intravenous thrombolysis was commenced 15 minutes following stable thrombotic vessel occlusion, as monitored with the flow probe. rtPA was administered via jugular catheter using a Harvard Apparatus syringe pump (Cat #704504; Pump Elite 11 I/W Single Syringe Pump, NSW, Australia). […] Carotid artery blood flow was assessed for 60 minutes following commencement of treatment. […] Following thrombolytic therapy, return of carotid artery blood flow was assessed using the mean blood flow recorded with LabChart software (version 7.0, ADInstruments, NSW, Australia). […]

B1: rtPA: thrombolytic agent recombinant tissue plasminogen activator (protein, UniProt P00750 36-562, looked up)
Tissue-type plasminogen …: SYQVICRDEKTQMIYQQHQSWLRPVLRSNRVEYCWCNSGRAQCHSVPVKSCSEPRCFNGGTCQQALYFSDFVCQCPEGFAGKCCEIDTRATCYEDQGISYRGTWSTAESGAECTNWNSSALAQKPYSGRRPDAIRLGLGNHNYCRNPDRDSKPWCYVFKAGKYSSEFCSTPACSEGNSDCYFGNGSAYRGTHSLTESGASCLPWNSMILIGKVYTAQNPSAQALGLGKHNYCRNPDGDAKPWCHVLKNRRLTWEYCDVPSCSTCGLRQYSQPQFRIKGGLFADIASHPWQAAIFAKHRRSPGERFLCGGILISSCWILSAAHCFQERFPPHHLTVILGRTYRVVPGEEEQKFEVEKYIVHKEFDDDTYDNDIALLQLKSDSSRCAQESSVVRTVCLPPADLQLPDWTECELSGYGKHEALSPFYSERLKEAHVRLYPSSRCTSQHLLNRTVTDNMLCAGDTRSGGPQANLHDACQGDSGGPLVCLNDGRMTLVGIISWGLGCGQKDVPGVYTKVTNYLDWIRDNMRP
Regarding B1, the vessel recanalization entry is on record as “remains occluded”.

Source of the values: patent US20230416341A1, “IMPROVED THROMBIN INHIBITORS FOR TREATMENT OF THROMBOEMBOLIC CONDITIONS” (priority 2020, published 2023).
